Test results: the Human Domainome abundance scans (Beltran et al. 2025)
± gives the uncertainty stated by the source.

B1: Gamma-crystallin S, residues 96 to 176; numbered along this chain, P22914 (parent)
chain: IQIFEKGDFSGQMYETTEDCPSIMEQFHMREIHSCKVLEGVWIFYELPNYRGRQYLLDKKEYRKPIDWGAASPAVQSFRRI

Variants of: B1
Experiment: abundance fitness (aPCA) (normalised: wild type 0, dead -1); higher = more abundant; growth selection in yeast, the domain comes from the species named
Conditions: Homo sapiens

Abundance fitness: each site, then its substitutions
Q12: D 0.012 ± 0.089, P 0.013 ± 0.059, A -0.02 ± 0.036, N 0.09 ± 0.095, G 0.033 ± 0.032, R 0.025 ± 0.047, E -0.053 ± 0.059, T 0.053 ± 0.084, M 0.001 ± 0.071, L -0.014 ± 0.047, F -0.053 ± 0.084, S 0.023 ± 0.052, H -0.04 ± 0.12, V 0.005 ± 0.039, C -0.093 ± 0.056, Y 0.035 ± 0.13
R30: D 0.009 ± 0.095, S -0.07 ± 0.046, K 0.055 ± 0.078, W 0.105 ± 0.051, N 0.044 ± 0.14, H 0.026 ± 0.095, T 0.011 ± 0.073, V -0.144 ± 0.038, E 0.066 ± 0.063, I -0.099 ± 0.11, F 0.005 ± 0.072, P 0 ± 0.1, A 0.061 ± 0.046, M 0.047 ± 0.076, Y -0.02 ± 0.1, G 0 ± 0.038, C 0.009 ± 0.058, L -0.031 ± 0.048, Q 0.11 ± 0.088
M29: Q 0.048 ± 0.14, E 0.109 ± 0.078, A 0.048 ± 0.046, K -0.006 ± 0.11, P 0.058 ± 0.079, I -0.015 ± 0.11, S 0.063 ± 0.051, F 0.036 ± 0.076, Y 0.025 ± 0.14, L -0.084 ± 0.055, T 0.109 ± 0.09, V 0.034 ± 0.052, H 0.124 ± 0.21, W 0.027 ± 0.071, C 0.132 ± 0.13, G 0.053 ± 0.045, N 0.226 ± 0.13, D 0.034 ± 0.09
S22: M -0.094 ± 0.078, F -0.035 ± 0.12, E -0.034 ± 0.083, I 0.033 ± 0.12, V 0.017 ± 0.051, Q -0.019 ± 0.11, N 0.001 ± 0.11, K 0.062 ± 0.099, G -0.015 ± 0.037, W 0.082 ± 0.1, P -0.907 ± 0.2, R -0.016 ± 0.044, A 0.023 ± 0.054, Y 0.142 ± 0.3, H -0.01 ± 0.077, T -0.08 ± 0.066, C 0.02 ± 0.12, L -0.022 ± 0.066
I23: T -0.033 ± 0.16, G -0.142 ± 0.045, V 0.004 ± 0.048, W 0.014 ± 0.11, H -0.201 ± 0.16, M -0.041 ± 0.17, Y 0.024 ± 0.088, Q -0.398 ± 0.18, P 0.02 ± 0.093, L -0.152 ± 0.089, E -0.945 ± 0.24, R -0.28 ± 0.077, A 0 ± 0.055, F 0.001 ± 0.072, S -0.038 ± 0.085, C -0.031 ± 0.11, K -0.588 ± 0.083, N -0.041 ± 0.08
P21: T -0.012 ± 0.074, C -0.011 ± 0.081, R -0.106 ± 0.045, N -0.015 ± 0.12, G 0.004 ± 0.04, E -0.028 ± 0.059, V 0.009 ± 0.042, S 0.019 ± 0.081, W 0.037 ± 0.062, K -0.016 ± 0.084, Q 0.023 ± 0.11, D -0.063 ± 0.08, A -0.043 ± 0.058, I -0.053 ± 0.12, M -0.057 ± 0.071, Y -0.109 ± 0.11, L -0.002 ± 0.048, F 0.075 ± 0.083
E15: P -0.038 ± 0.098, L -0.078 ± 0.078, C -0.137 ± 0.098, V -0.013 ± 0.061, T -0.064 ± 0.11, K 0.147 ± 0.12, Q 0.018 ± 0.11, H -0.095 ± 0.14, M -0.18 ± 0.1, W -0.062 ± 0.13, F -0.05 ± 0.099, A -0.011 ± 0.062, I -0.183 ± 0.15, Y 0.115 ± 0.12, R -0.057 ± 0.053, G -0.044 ± 0.059, D -0.046 ± 0.099
Q26: S -0.035 ± 0.052, W 0 ± 0.061, R 0.009 ± 0.041, T -0.047 ± 0.088, A -0.018 ± 0.063, P -0.021 ± 0.092, K -0.079 ± 0.12, V 0.009 ± 0.059, M -0.04 ± 0.087, F -0.033 ± 0.071, E 0.079 ± 0.089, C -0.123 ± 0.097, I -0.065 ± 0.15, Y 0.082 ± 0.11, G 0.044 ± 0.051, D 0.073 ± 0.11
E25: W -0.434 ± 0.35
T17: E -0.069 ± 0.11, A 0.022 ± 0.053, N -0.02 ± 0.18, G -0.013 ± 0.049, C 0.027 ± 0.12, S -0.068 ± 0.062, L 0.022 ± 0.056, F -0.007 ± 0.1, K 0.074 ± 0.13, V -0.031 ± 0.049, Y -0.352 ± 0.17, R -0.012 ± 0.05, Q -0.005 ± 0.082, D -0.051 ± 0.1, P 0.075 ± 0.071, I 0.037 ± 0.12, M -0.059 ± 0.09, W 0.021 ± 0.079
E31: C -0.13 ± 0.12, K -0.034 ± 0.1, G 0.015 ± 0.045, F 0.041 ± 0.081, H 0.069 ± 0.14, A 0.066 ± 0.048, D 0.138 ± 0.12, I 0.05 ± 0.081
H28: G 0.048 ± 0.047, W 0.05 ± 0.072, L 0.035 ± 0.056, T 0.036 ± 0.08, A 0.045 ± 0.058, E 0.006 ± 0.09, Q 0.037 ± 0.13, D 0.027 ± 0.099, K 0.07 ± 0.099, Y 0.035 ± 0.11, R -0.047 ± 0.05, I 0.079 ± 0.17, F 0.332 ± 0.26, C 0.031 ± 0.086, P 0.137 ± 0.056, M -0.05 ± 0.089, N 0.009 ± 0.081, S 0.042 ± 0.069, V -0.011 ± 0.052
D19: V -0.038 ± 0.04, K -0.114 ± 0.16, Y 0.009 ± 0.098, F -0.116 ± 0.087, W -0.024 ± 0.072, P -0.237 ± 0.14, I -0.144 ± 0.087, C -0.003 ± 0.086, Q 0.181 ± 0.12, H 0.143 ± 0.22, M -0.097 ± 0.091, L -0.124 ± 0.076, R -0.015 ± 0.068, A -0.005 ± 0.057, E -0.018 ± 0.081, T -0.059 ± 0.077, N -0.193 ± 0.17, G -0.035 ± 0.05
G11: V -0.208 ± 0.04, W -0.171 ± 0.045, R -0.135 ± 0.032, Q -0.003 ± 0.044, S 0.06 ± 0.035, Y -0.094 ± 0.097
M13: A -0.011 ± 0.051, T 0.027 ± 0.064, V -0.017 ± 0.047, R -0.01 ± 0.028, F -0.04 ± 0.14, W -0.048 ± 0.05, E 0.028 ± 0.061, C -0.012 ± 0.076, P 0.027 ± 0.059, N -0.083 ± 0.11, S -0.023 ± 0.052, I 0.062 ± 0.098, Y 0.094 ± 0.15, G -0.041 ± 0.04, D -0.032 ± 0.16, Q 0.019 ± 0.061, H 0.005 ± 0.099, K -0.032 ± 0.064
E18: Y -0.032 ± 0.13, H -0.039 ± 0.27, K 0.017 ± 0.14, Q 0.009 ± 0.11, T -0.046 ± 0.085, M -0.066 ± 0.12, L -0.021 ± 0.064, F -0.007 ± 0.12, V 0.002 ± 0.049, G 0.038 ± 0.039, W 0.014 ± 0.074, I 0.079 ± 0.15, A -0.087 ± 0.061, C 0.006 ± 0.17, N 0.072 ± 0.13, S 0.016 ± 0.054, R -0.028 ± 0.044, P -0.067 ± 0.087, D -0.153 ± 0.16
M24: Y -0.095 ± 0.14, C -0.016 ± 0.16, R -0.005 ± 0.056, I -0.017 ± 0.11, Q -0.097 ± 0.098, K 0.335 ± 0.12, P -0.099 ± 0.069, D -0.11 ± 0.16, E -0.052 ± 0.078, S -0.088 ± 0.074, L 0.002 ± 0.06, A -0.054 ± 0.059, T 0.007 ± 0.06, W 0.115 ± 0.06, H -0.099 ± 0.17
Y14: I -0.003 ± 0.08, A 0.049 ± 0.077, V -0.002 ± 0.072, C -0.027 ± 0.077, P -0.993 ± 0.22, G 0.028 ± 0.056, M -0.166 ± 0.11, K -0.009 ± 0.13, Q 0.128 ± 0.097, F -0.011 ± 0.083, R -0.004 ± 0.056, T 0.086 ± 0.078, S 0.07 ± 0.061, N 0.063 ± 0.081, W -0.056 ± 0.15, E 0.113 ± 0.2, H 0.034 ± 0.17, D -0.01 ± 0.095
T16: M 0.061 ± 0.13, R 0.003 ± 0.057, P 0.102 ± 0.071, G 0.006 ± 0.054, A 0.026 ± 0.061, H -0.003 ± 0.16, L 0.049 ± 0.056, E 0.046 ± 0.054, F 0.148 ± 0.15, W 0.078 ± 0.091, C 0.012 ± 0.093, Q -0.108 ± 0.13, N 0.024 ± 0.13, K -0.129 ± 0.15, D -0.002 ± 0.13, Y 0.018 ± 0.085, I -0.055 ± 0.092, V -0.035 ± 0.057
F27: S 0.006 ± 0.047, L 0.015 ± 0.049, R 0.02 ± 0.042, A 0.033 ± 0.047, C -0.094 ± 0.085, W 0.03 ± 0.059, M 0.014 ± 0.068, Q 0.021 ± 0.067, N -0.141 ± 0.14, G 0.017 ± 0.04, I 0.104 ± 0.094, H 0.101 ± 0.24, Y -0.011 ± 0.15, V 0.014 ± 0.053, K -0.018 ± 0.15, P -0.001 ± 0.081, D -0.156 ± 0.13
C20: L -0.142 ± 0.051, D -0.754 ± 0.24, P -1.04 ± 0.16, M -0.008 ± 0.081, F -0.222 ± 0.077, R -0.235 ± 0.049, I 0.023 ± 0.15, A -0.004 ± 0.057, W -0.065 ± 0.077, N -0.134 ± 0.11, E -0.144 ± 0.072, K -0.027 ± 0.072, G -0.352 ± 0.053, T -0.086 ± 0.056, Q -0.002 ± 0.09, V -0.087 ± 0.06, S -0.054 ± 0.052, H -0.398 ± 0.19, Y -0.035 ± 0.1
